According to paper PMC12411348 (2025):

Biological target: recombinant human pVHL (CUSABIO) (human, UniProt P40337-1 1-213)
Test: SPR

Sequence of recombinant human pVHL (CUSABIO) (P40337 whole entry): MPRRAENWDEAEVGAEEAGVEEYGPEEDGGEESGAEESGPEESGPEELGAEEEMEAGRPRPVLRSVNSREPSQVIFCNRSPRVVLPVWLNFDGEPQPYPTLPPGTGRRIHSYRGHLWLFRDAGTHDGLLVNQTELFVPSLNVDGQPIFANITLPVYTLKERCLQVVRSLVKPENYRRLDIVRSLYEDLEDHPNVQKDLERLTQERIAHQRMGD

Kd: 806 nM
B1: recombinant TCF7L2(1–456) (domain or fragment)
chain: MPQLNGGGGDDLGANDELISFKDEGEQEEKSSENSSAERDLADVKSSLVNESETNQNSSSDSEAERRPPPRSESFRDKSRESLEEAAKRQDGGLFKGPPYPGYPFIMIPDLTSPYLPNGSLSPTARTLHFQSGSTHYSAYKTIEHQIAVQYLQMKWPLLDVQAGSLQSRQALKDARSPSPAHIVSNKVPVVQHPHHVHPLTPLITYSNEHFTPGNPPPHLPADVDPKTGIPRPPHPPDISPYYPLSPGTVGQIPHPLGWLVPQQGQPVYPITTGGFRHPYPTALTVNASMSRFPPHMVPPHHTLHTTGIPHPAIVTPTVKQESSQSDVGSLHSSKHQDSKKEEEKKKPHIKKPLNAFMLYMKEMRAKVVAECTLKESAAINQILGRRWHALSREEQAKYYELARKERQLHMQLYPGWSARDNYGKKKKRKRDKQPGETNEHSECFLNPCLSLPPIT
